# Experimental data taken from paper PMC7316778 (Nature Communications, 2020).
# Key:
# Experiment in all cases: PamChip microarray peptide phosphorylation
# SYK = SYK (Homo sapiens, UniProt P43405); settings: peptide substrate phosphorylated by SYK
# FES^WT = molecular target: T1, FES^WT (Homo sapiens, UniProt P07332); assay type: biochemical; settings: peptide substrate phosphorylated by FES - WT
# T1 construct: human FES cDNA encoding residues 448–822 or human FER cDNA encoding residues 448–820 was amplified by PCR; made in house; host or cells: E. coli BL21(DE3), co-expressing YopH phosphatase
# ABL1 = ABL1 (Homo sapiens, UniProt P00519); settings: peptide substrate phosphorylated by ABL1
# LYN = LYN (Homo sapiens, UniProt P07948); settings: peptide substrate phosphorylated by LYN
# FGR = FGR (Homo sapiens, UniProt P09769); settings: peptide substrate phosphorylated by FGR
# CSK = CSK (Homo sapiens, UniProt P41240); settings: peptide substrate phosphorylated by CSK
# Sequence of CSK (P41240 whole entry): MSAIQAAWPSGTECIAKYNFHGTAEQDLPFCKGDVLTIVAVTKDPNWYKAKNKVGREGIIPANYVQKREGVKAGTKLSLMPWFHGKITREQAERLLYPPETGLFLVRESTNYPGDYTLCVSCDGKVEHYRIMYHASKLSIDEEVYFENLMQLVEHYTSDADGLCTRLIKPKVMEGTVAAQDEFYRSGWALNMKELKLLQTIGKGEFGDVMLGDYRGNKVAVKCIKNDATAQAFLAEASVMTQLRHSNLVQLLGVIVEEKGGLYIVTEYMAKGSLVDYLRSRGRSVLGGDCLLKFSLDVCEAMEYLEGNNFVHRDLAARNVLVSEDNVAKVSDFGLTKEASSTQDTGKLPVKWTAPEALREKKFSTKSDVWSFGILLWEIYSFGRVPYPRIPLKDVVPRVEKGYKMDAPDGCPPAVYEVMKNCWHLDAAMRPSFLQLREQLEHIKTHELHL
# T1 sequence (P07332 448-822): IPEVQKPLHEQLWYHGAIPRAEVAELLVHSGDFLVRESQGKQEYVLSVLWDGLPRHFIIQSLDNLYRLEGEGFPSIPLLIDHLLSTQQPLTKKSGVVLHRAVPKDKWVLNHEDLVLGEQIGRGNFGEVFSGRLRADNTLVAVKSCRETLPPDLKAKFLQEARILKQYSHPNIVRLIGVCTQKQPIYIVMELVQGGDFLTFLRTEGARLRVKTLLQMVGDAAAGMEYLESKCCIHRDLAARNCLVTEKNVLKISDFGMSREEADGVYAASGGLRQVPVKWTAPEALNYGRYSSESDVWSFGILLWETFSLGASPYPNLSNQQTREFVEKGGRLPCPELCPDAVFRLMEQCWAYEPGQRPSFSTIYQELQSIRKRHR
# Sequence of LYN (P07948 whole entry): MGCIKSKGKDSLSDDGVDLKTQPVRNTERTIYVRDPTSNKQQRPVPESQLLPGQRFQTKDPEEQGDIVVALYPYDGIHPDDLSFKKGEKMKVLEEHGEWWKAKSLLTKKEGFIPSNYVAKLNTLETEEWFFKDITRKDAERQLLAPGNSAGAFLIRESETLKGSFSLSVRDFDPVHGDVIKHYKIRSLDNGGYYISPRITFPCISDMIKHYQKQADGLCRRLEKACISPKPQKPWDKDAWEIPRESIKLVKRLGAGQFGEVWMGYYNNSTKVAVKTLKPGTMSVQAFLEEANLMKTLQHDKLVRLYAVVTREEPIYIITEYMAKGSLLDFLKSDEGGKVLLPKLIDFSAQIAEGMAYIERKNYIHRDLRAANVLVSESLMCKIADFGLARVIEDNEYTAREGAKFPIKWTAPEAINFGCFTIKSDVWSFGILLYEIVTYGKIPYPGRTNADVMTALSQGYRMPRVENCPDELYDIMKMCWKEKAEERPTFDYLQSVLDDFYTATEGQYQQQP
# Sequence of ABL1 (P00519 whole entry): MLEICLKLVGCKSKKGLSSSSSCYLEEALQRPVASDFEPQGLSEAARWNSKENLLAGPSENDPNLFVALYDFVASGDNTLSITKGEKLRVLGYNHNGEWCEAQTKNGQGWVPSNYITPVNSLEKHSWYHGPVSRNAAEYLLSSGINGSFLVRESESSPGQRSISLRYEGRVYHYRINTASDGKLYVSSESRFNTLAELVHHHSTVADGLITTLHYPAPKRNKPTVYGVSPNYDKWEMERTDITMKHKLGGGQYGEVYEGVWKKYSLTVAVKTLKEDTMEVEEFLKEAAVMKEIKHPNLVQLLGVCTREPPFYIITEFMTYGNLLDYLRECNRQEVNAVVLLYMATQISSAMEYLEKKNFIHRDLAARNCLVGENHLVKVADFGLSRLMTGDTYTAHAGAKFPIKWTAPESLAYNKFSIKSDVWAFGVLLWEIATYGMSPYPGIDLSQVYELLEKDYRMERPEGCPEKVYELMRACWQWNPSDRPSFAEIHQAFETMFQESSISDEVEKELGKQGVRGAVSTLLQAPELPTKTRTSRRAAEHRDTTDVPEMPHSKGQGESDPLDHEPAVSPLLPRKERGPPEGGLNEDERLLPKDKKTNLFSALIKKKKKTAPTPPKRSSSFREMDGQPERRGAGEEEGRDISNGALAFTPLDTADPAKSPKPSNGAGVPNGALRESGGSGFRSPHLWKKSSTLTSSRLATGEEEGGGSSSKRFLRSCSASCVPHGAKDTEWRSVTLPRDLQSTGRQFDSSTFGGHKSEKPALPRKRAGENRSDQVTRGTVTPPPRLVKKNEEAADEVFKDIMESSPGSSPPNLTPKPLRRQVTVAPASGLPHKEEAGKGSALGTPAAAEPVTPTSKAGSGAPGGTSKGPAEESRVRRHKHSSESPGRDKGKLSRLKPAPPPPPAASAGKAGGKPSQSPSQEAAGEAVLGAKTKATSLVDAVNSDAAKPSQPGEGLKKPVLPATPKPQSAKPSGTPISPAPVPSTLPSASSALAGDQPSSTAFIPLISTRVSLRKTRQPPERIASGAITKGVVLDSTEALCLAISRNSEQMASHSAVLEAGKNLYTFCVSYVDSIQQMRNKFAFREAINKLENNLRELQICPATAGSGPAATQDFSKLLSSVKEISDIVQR
substance,measurement,setting,value
"VGFR1_1206_1218 (GSSDDVRYVNAFK; UniProt P17948 1206-1218, looked up, fragment)",Relative phosphorylation (% of highest signal),SYK,-0.354 % of highest signal
same,Relative phosphorylation (% of highest signal),FES^WT,-0.0198 % of highest signal
same,Relative phosphorylation (% of highest signal),ABL1,0.0233 % of highest signal
same,Relative phosphorylation (% of highest signal),LYN,-0.1 % of highest signal
same,Relative phosphorylation (% of highest signal),FGR,-1.0 % of highest signal
same,Relative phosphorylation (% of highest signal),CSK,-0.459 % of highest signal
"VGFR1_1049_1061 (KNPDYVRKGDTRL; UniProt P17948 1049-1061, looked up, fragment)",Relative phosphorylation (% of highest signal),SYK,-0.167 % of highest signal
same,Relative phosphorylation (% of highest signal),FES^WT,-0.333 % of highest signal
same,Relative phosphorylation (% of highest signal),ABL1,-0.36 % of highest signal
same,Relative phosphorylation (% of highest signal),LYN,-0.274 % of highest signal
same,Relative phosphorylation (% of highest signal),FGR,-2.4 % of highest signal
same,Relative phosphorylation (% of highest signal),CSK,-0.8 % of highest signal
"STAT1_694_706 (DGPKGTGYIKTEL; UniProt P42224 694-706, looked up, fragment)",Relative phosphorylation (% of highest signal),SYK,-1.9 % of highest signal
same,Relative phosphorylation (% of highest signal),FES^WT,-0.5 % of highest signal
same,Relative phosphorylation (% of highest signal),ABL1,-0.6 % of highest signal
same,Relative phosphorylation (% of highest signal),LYN,-0.0105 % of highest signal
same,Relative phosphorylation (% of highest signal),FGR,-3.3 % of highest signal
same,Relative phosphorylation (% of highest signal),CSK,-1.4 % of highest signal
"ZAP70_485_497 (ALGADDSYYTARS; UniProt P43403 485-497, looked up, fragment)",Relative phosphorylation (% of highest signal),SYK,10.4 % of highest signal
same,Relative phosphorylation (% of highest signal),FES^WT,3.5 % of highest signal
same,Relative phosphorylation (% of highest signal),ABL1,-0.0741 % of highest signal
same,Relative phosphorylation (% of highest signal),LYN,1.0 % of highest signal
same,Relative phosphorylation (% of highest signal),FGR,7.8 % of highest signal
same,Relative phosphorylation (% of highest signal),CSK,0.277 % of highest signal
ART_004_EAIYAAPFAKKKXC,Relative phosphorylation (% of highest signal),SYK,3.2 % of highest signal
same,Relative phosphorylation (% of highest signal),FES^WT,5.0 % of highest signal
same,Relative phosphorylation (% of highest signal),ABL1,100.0 % of highest signal
same,Relative phosphorylation (% of highest signal),LYN,2.6 % of highest signal
same,Relative phosphorylation (% of highest signal),FGR,8.3 % of highest signal
same,Relative phosphorylation (% of highest signal),CSK,17.0 % of highest signal
"VGFR2_1046_1058 (DFGLARDIYKDPD; UniProt P35968 1046-1058, looked up, fragment)",Relative phosphorylation (% of highest signal),SYK,0.6 % of highest signal
same,Relative phosphorylation (% of highest signal),FES^WT,1.1 % of highest signal
same,Relative phosphorylation (% of highest signal),ABL1,-0.11 % of highest signal
same,Relative phosphorylation (% of highest signal),LYN,0.243 % of highest signal
same,Relative phosphorylation (% of highest signal),FGR,1.2 % of highest signal
same,Relative phosphorylation (% of highest signal),CSK,2.2 % of highest signal
"MK01_198_210 (IMLNSKGYTKSID; UniProt P28482 198-210, looked up, fragment)",Relative phosphorylation (% of highest signal),SYK,-1.2 % of highest signal
same,Relative phosphorylation (% of highest signal),FES^WT,-0.6 % of highest signal
same,Relative phosphorylation (% of highest signal),ABL1,-0.5 % of highest signal
same,Relative phosphorylation (% of highest signal),LYN,-0.184 % of highest signal
same,Relative phosphorylation (% of highest signal),FGR,-3.8 % of highest signal
same,Relative phosphorylation (% of highest signal),CSK,-0.8 % of highest signal
"VGFR1_1162_1174 (VQQDGKDYIPINA; UniProt P17948 1162-1174, looked up, fragment)",Relative phosphorylation (% of highest signal),SYK,1.8 % of highest signal
same,Relative phosphorylation (% of highest signal),FES^WT,2.3 % of highest signal
same,Relative phosphorylation (% of highest signal),ABL1,-0.426 % of highest signal
same,Relative phosphorylation (% of highest signal),LYN,-0.153 % of highest signal
same,Relative phosphorylation (% of highest signal),FGR,-3.4 % of highest signal
same,Relative phosphorylation (% of highest signal),CSK,-0.737 % of highest signal
"VGFR2_1207_1219_C1208S (VSDPKFHYDNTAG; UniProt P35968 1207-1219, looked up, variant C1208S)",Relative phosphorylation (% of highest signal),SYK,-1.4 % of highest signal
same,Relative phosphorylation (% of highest signal),FES^WT,0.5 % of highest signal
same,Relative phosphorylation (% of highest signal),ABL1,-0.742 % of highest signal
same,Relative phosphorylation (% of highest signal),LYN,-0.213 % of highest signal
same,Relative phosphorylation (% of highest signal),FGR,-0.6 % of highest signal
same,Relative phosphorylation (% of highest signal),CSK,-1.4 % of highest signal
"EPOR_361_373 (SEHAQDTYLVLDK; UniProt P19235 361-373, looked up, fragment)",Relative phosphorylation (% of highest signal),SYK,12.7 % of highest signal
same,Relative phosphorylation (% of highest signal),FES^WT,3.3 % of highest signal
same,Relative phosphorylation (% of highest signal),ABL1,0.0544 % of highest signal
same,Relative phosphorylation (% of highest signal),LYN,1.2 % of highest signal
same,Relative phosphorylation (% of highest signal),FGR,2.0 % of highest signal
same,Relative phosphorylation (% of highest signal),CSK,2.0 % of highest signal
"EFS_246_258_Y253F (GGTDEGIFDVPLL; UniProt O43281 246-258, looked up, fragment Y253F)",Relative phosphorylation (% of highest signal),SYK,-1.2 % of highest signal
same,Relative phosphorylation (% of highest signal),FES^WT,-0.634 % of highest signal
same,Relative phosphorylation (% of highest signal),ABL1,-0.5 % of highest signal
same,Relative phosphorylation (% of highest signal),LYN,-0.264 % of highest signal
same,Relative phosphorylation (% of highest signal),FGR,-4.8 % of highest signal
same,Relative phosphorylation (% of highest signal),CSK,-0.6 % of highest signal
"PERI_458_470 (QRSELDKSSAHSY; UniProt P41219 458-470, looked up, fragment)",Relative phosphorylation (% of highest signal),SYK,-1.3 % of highest signal
same,Relative phosphorylation (% of highest signal),FES^WT,-0.5 % of highest signal
same,Relative phosphorylation (% of highest signal),ABL1,-0.4 % of highest signal
same,Relative phosphorylation (% of highest signal),LYN,-0.0931 % of highest signal
same,Relative phosphorylation (% of highest signal),FGR,-1.2 % of highest signal
same,Relative phosphorylation (% of highest signal),CSK,-0.632 % of highest signal
"VGFR2_989_1001 (EEAPEDLYKDFLT; UniProt P35968 989-1001, looked up, fragment)",Relative phosphorylation (% of highest signal),SYK,15.3 % of highest signal
same,Relative phosphorylation (% of highest signal),FES^WT,10.0 % of highest signal
same,Relative phosphorylation (% of highest signal),ABL1,2.3 % of highest signal
same,Relative phosphorylation (% of highest signal),LYN,2.8 % of highest signal
same,Relative phosphorylation (% of highest signal),FGR,21.5 % of highest signal
same,Relative phosphorylation (% of highest signal),CSK,30.5 % of highest signal
"DDR1_506_518 (LLLSNPAYRLLLA; UniProt Q08345 506-518, looked up, fragment)",Relative phosphorylation (% of highest signal),SYK,-3.9 % of highest signal
same,Relative phosphorylation (% of highest signal),FES^WT,-0.4 % of highest signal
same,Relative phosphorylation (% of highest signal),ABL1,-1.4 % of highest signal
same,Relative phosphorylation (% of highest signal),LYN,-1.0 % of highest signal
same,Relative phosphorylation (% of highest signal),FGR,-6.2 % of highest signal
same,Relative phosphorylation (% of highest signal),CSK,-1.7 % of highest signal
"VGFR2_944_956 (RFRQGKDYVGAIP; UniProt P35968 944-956, looked up, fragment)",Relative phosphorylation (% of highest signal),SYK,0.9 % of highest signal
same,Relative phosphorylation (% of highest signal),FES^WT,0.741 % of highest signal
same,Relative phosphorylation (% of highest signal),ABL1,-0.378 % of highest signal
same,Relative phosphorylation (% of highest signal),LYN,-0.364 % of highest signal
same,Relative phosphorylation (% of highest signal),FGR,-1.0 % of highest signal
same,Relative phosphorylation (% of highest signal),CSK,-0.8 % of highest signal
"VGFR3_1061_1073 (DIYKDPDYVRKGS; UniProt P35916 1061-1073, looked up, fragment)",Relative phosphorylation (% of highest signal),SYK,2.4 % of highest signal
same,Relative phosphorylation (% of highest signal),FES^WT,-0.0595 % of highest signal
same,Relative phosphorylation (% of highest signal),ABL1,2.9 % of highest signal
same,Relative phosphorylation (% of highest signal),LYN,0.0483 % of highest signal
same,Relative phosphorylation (% of highest signal),FGR,0.468 % of highest signal
same,Relative phosphorylation (% of highest signal),CSK,0.341 % of highest signal
"ODBA_340_352_D340K (KDSSAYRSVDEVN; UniProt P12694 340-352, looked up, variant D340K)",Relative phosphorylation (% of highest signal),SYK,1.5 % of highest signal
same,Relative phosphorylation (% of highest signal),FES^WT,-0.457 % of highest signal
same,Relative phosphorylation (% of highest signal),ABL1,5.2 % of highest signal
same,Relative phosphorylation (% of highest signal),LYN,0.112 % of highest signal
same,Relative phosphorylation (% of highest signal),FGR,-0.358 % of highest signal
same,Relative phosphorylation (% of highest signal),CSK,10.4 % of highest signal
"AMPE_5_17 (EREGSKRYCIQTK; UniProt Q07075 5-17, looked up, fragment)",Relative phosphorylation (% of highest signal),SYK,-1.8 % of highest signal
same,Relative phosphorylation (% of highest signal),FES^WT,-0.1 % of highest signal
same,Relative phosphorylation (% of highest signal),ABL1,-0.436 % of highest signal
same,Relative phosphorylation (% of highest signal),LYN,0.114 % of highest signal
same,Relative phosphorylation (% of highest signal),FGR,-1.5 % of highest signal
same,Relative phosphorylation (% of highest signal),CSK,-0.745 % of highest signal
"STA5A_687_699 (LAKAVDGYVKPQI; UniProt P42229 687-699, looked up, fragment)",Relative phosphorylation (% of highest signal),SYK,-1.9 % of highest signal
same,Relative phosphorylation (% of highest signal),FES^WT,-0.46 % of highest signal
same,Relative phosphorylation (% of highest signal),ABL1,-0.439 % of highest signal
same,Relative phosphorylation (% of highest signal),LYN,-0.4 % of highest signal
same,Relative phosphorylation (% of highest signal),FGR,-3.6 % of highest signal
same,Relative phosphorylation (% of highest signal),CSK,-1.3 % of highest signal
